Experimental data published in article PMC9781616.

Molecular target: Echovirus 11 (E11) strain 18-2135 full virus particle (capsid of VP1-4) (echovirus 11 (strain 18-2135))
Assay: cryo-EM structure

## Decay-accelerating factor (DAF) full-length ectodomain, short consensus repeats SCR 1-4 (from UniProt P08174 35-285) (receptor)
  DAF occupancy: 31.5%
  stoichiometry N (DAF molecules per particle): 20
